Experimental data from US20080108569.

B1: GST-tagged PP2C domain of PHLPP2 (protein)
chain: TSTFWSHGLAEMAGQRNKLCVSALAMDSFAEGVGAVYGMFDGDRNEELPRLLQCTMADVLLEEVQQSTNDTVFMANTFLVSHRKLGMAGQKLGSSALLCYIRPDTADPASSFSLTVANVGTCQAVLCRGGKPVPLSKVFSLEQDPEEAQRVKDQKAIITEDNKVNGVTCCTRMLGCTYLYPWILPKPHISSTPLTIQDELLILGNKALWEHLSYTEAVNAVRHVQDPLAAAKKLCTLAQSYGCQDNVGAMV
B2: HA-tagged full length PHLPP2 (protein)
chain: MGYPYDVPDYAMKRNGSRNCLNRRSRFGSRERDWLREDVKRGCVYLYGADTTTATTTTTTSSSSSSSSSSSDLHLVLCTVETPASEICAGEGRESLYLQLHGDLVRRLEPTERPLQIVYDYLSRLGFDDPVRIQEEATNPDLGCMIRFYGEKPCHMDRLDRILLSGIYNVRKGKTQLHKWAERLVVLCGTCLIVSSVKDCQTGKMHILPLVGGKIEEVKRRQYSLAFSSAGAQAQTYHVSFETLAEYQRWQRQASKVVSQRISTVDLSCYSLEEVPEHLFYSQDITYLNLRHNFMQLERPGGLDTLYKFSQLKGLNLSHNKLGLFPILLCEISTLTELNLSCNGFHDLPSQIGNLLNLQTLCLDGNFLTTLPEELGNLQQLSSLGISFNNFSQIPEVYEKLTMLDRVVMAGNCLEVLNLGVLNRMNHIKHVDLRMNHLKTMVIENLEGNKHITHVDLRDNRLTDLDLSSLCSLEQLHCGRNQLRELTLSGFSLRTLYASSNRLTAVNVYPVPSLLTFLDLSRNLLECVPDWACEAKKIEVLDVSYNLLTEVPVRILSSLSLRKLMLGHNHVQNLPTLVEHIPLEVLDLQHNALTRLPDTLFSKALNLRYLNASANSLESLPSACTGEESLSMLQLLYLTNNLLTDQCIPVLVGHLHLRILHLANNQLQTFPASKLNKLEQLEELNLSGNKLKTIPTTIANCKRLHTLVAHSNNISIFPEILQLPQIQFVDLSCNDLTEILIPEALPATLQDLDLTGNTNLVLEHKTLDIFSHITTLKIDQKPLPTTDSTVTSTFWSHGLAEMAGQRNKLCVSALAMDSFAEGVGAVYGMFDGDRNEELPRLLQCTMADVLLEEVQQSTNDTVFMANTFLVSHRKLGMAGQKLGSSALLCYIRPDTADPASSFSLTVANVGTCQAVLCRGGKPVPLSKVFSLEQDPEEAQRVKDQKAIITEDNKVNGVTCCTRMLGCTYLYPWILPKPHISSTPLTIQDELLILGNKALWEHLSYTEAVNAVRHVQDPLAAAKKLCTLAQSYGCQDNVGAMVVYLNIGEEGCTCEMNGLTLPGPVGFASTTTIKDAPKPATPSSSSGIASEFSSEMSTSEVSSEVGSTASDEHNAGGLDTALLPRPERRCSLHPTPTSGLFQRQPSSATFSSNQSDNGLDSDDDQPVEGVITNGSKVEVEVDIHCCRGRDLENSPPLIESSPTLCSEEHARGSCFGIRRQNSVNSGMLLPMSKDRMELQKSPSTSCLYGKKLSNGSIVPLEDSLNLIEVATEVPKRKTGYFAAPTQMEPEDQFVVPHDLEEEVKEQMKQHQDSRLEPEPHEEDRTEPPEEFDTAL

Biological target: 6His-tagged human Akt1, P31749
Sequence (P31749 whole entry, looked up): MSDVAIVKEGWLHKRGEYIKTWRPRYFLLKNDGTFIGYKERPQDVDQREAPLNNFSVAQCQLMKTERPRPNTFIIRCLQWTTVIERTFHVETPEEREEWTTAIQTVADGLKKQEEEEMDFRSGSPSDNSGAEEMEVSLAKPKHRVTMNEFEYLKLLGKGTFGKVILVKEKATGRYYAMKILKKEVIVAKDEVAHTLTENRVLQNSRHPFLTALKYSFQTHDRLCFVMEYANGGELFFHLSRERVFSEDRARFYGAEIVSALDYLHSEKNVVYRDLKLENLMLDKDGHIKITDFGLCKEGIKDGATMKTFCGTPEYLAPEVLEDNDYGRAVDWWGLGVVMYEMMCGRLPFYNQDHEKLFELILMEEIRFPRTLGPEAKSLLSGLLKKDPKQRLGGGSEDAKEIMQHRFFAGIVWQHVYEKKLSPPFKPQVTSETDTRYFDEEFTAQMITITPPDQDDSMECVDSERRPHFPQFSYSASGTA

Row | Protein | dephosphorylation of Ser 473 in 5 minutes (phospho-specific antibody) | dephosphorylation of Thr 308 in 5 minutes (phospho-specific antibody) | dephosphorylation of Ser 473 by immunoprecipitated enzyme | dephosphorylation of Thr 308 by immunoprecipitated enzyme
1 | B1 | 82+6% (Ser 473) | 70+2% (Thr 308) | – | –
2 | B2 | – | – | 60+4% dephosphorylation of Ser 473 | no significant effect on Thr 308 phosphorylation
